Assay results as given in article PMC7998035.

What was measured:
Assay in all cases: ELISA; ECM protein coated on the plate (100 nM in PBS, 1 h, 37 °C), blocked with 1% BSA in PBS-T; IL-1Ra or PDGF-BB variants at 0 to 100 nM in PBS-T with 0.1% BSA, 1 h, room temperature; bound protein detected with biotinylated antibodies (DuoSet); specific binding fitted with a one site-specific binding model; means of 3 independent experiments
[1] = biological target: human tenascin C (human) (UniProt P24821)
Sequence of human tenascin C (human) (P24821 23-2201): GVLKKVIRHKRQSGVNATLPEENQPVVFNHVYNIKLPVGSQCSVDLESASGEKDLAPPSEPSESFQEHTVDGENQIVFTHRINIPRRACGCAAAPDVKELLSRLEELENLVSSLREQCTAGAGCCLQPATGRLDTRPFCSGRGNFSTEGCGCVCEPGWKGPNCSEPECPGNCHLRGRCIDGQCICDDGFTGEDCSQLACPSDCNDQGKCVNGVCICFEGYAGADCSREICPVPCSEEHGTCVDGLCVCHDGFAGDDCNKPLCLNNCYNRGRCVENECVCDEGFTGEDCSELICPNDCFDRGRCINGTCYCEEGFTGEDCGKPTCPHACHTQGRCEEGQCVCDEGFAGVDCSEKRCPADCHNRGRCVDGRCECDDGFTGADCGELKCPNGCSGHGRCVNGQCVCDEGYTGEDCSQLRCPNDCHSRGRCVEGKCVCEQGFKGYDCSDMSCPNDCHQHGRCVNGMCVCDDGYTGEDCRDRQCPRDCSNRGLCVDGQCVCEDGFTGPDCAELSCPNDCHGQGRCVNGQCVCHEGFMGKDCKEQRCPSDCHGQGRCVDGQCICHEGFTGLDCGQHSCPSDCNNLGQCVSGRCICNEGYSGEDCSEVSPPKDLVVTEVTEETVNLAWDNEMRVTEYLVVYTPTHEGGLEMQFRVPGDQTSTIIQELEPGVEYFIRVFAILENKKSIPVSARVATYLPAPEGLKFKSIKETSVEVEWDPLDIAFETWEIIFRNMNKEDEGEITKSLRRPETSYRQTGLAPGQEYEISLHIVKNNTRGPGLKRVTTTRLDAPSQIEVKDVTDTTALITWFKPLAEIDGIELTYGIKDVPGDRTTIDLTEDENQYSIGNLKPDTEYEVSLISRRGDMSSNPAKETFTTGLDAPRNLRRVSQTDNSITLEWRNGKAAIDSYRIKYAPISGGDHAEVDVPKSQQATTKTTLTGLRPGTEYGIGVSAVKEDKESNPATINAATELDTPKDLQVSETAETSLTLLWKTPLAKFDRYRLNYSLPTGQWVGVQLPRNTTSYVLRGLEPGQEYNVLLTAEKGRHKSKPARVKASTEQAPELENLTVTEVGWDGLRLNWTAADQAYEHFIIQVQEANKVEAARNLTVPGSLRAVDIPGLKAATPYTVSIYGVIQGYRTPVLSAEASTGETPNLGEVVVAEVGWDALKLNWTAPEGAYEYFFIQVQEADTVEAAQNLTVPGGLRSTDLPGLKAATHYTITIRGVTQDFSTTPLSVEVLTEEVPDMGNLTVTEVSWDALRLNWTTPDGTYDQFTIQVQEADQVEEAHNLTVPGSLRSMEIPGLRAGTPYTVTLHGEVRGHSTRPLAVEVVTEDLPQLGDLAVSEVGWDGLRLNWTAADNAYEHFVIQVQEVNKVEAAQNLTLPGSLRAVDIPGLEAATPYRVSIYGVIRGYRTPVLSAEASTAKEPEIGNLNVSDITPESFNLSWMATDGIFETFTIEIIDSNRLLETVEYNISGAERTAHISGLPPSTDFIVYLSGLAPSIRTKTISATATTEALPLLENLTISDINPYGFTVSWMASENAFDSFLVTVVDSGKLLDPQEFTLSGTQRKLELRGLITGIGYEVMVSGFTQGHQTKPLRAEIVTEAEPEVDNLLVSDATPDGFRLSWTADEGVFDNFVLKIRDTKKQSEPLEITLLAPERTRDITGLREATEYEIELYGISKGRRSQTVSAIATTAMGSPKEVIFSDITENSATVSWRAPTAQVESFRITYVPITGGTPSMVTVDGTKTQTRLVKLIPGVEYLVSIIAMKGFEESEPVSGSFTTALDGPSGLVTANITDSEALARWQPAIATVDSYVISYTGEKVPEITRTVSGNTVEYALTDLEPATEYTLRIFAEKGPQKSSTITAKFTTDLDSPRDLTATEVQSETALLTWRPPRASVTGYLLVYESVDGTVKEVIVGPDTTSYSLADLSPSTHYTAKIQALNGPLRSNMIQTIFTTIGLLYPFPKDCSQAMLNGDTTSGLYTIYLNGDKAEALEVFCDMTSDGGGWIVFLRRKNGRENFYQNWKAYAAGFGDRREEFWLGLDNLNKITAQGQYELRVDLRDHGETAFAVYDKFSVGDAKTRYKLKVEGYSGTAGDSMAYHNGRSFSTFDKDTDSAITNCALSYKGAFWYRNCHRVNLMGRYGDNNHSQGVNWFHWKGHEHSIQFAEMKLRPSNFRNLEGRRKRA

[2] = biological target: human vitronectin (human) (UniProt P04004)
Sequence of human vitronectin (human) (P04004 20-478): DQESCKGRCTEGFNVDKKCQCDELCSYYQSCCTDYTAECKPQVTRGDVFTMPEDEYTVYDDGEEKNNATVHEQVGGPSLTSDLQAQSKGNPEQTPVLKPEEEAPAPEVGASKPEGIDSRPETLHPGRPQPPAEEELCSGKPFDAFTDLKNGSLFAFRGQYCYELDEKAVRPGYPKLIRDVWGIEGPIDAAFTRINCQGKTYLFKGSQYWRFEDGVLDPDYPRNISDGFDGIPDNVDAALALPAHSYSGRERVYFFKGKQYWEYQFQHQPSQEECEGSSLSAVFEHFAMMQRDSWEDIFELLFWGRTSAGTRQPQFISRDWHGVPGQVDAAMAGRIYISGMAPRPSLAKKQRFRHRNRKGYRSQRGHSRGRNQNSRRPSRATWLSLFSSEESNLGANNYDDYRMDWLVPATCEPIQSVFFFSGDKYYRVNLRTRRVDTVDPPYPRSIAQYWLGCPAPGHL

[3] = biological target: human plasma fibronectin (human)
Sequence of human plasma fibronectin (human) (P02751 other isoform, or with tags, fused parts or gaps): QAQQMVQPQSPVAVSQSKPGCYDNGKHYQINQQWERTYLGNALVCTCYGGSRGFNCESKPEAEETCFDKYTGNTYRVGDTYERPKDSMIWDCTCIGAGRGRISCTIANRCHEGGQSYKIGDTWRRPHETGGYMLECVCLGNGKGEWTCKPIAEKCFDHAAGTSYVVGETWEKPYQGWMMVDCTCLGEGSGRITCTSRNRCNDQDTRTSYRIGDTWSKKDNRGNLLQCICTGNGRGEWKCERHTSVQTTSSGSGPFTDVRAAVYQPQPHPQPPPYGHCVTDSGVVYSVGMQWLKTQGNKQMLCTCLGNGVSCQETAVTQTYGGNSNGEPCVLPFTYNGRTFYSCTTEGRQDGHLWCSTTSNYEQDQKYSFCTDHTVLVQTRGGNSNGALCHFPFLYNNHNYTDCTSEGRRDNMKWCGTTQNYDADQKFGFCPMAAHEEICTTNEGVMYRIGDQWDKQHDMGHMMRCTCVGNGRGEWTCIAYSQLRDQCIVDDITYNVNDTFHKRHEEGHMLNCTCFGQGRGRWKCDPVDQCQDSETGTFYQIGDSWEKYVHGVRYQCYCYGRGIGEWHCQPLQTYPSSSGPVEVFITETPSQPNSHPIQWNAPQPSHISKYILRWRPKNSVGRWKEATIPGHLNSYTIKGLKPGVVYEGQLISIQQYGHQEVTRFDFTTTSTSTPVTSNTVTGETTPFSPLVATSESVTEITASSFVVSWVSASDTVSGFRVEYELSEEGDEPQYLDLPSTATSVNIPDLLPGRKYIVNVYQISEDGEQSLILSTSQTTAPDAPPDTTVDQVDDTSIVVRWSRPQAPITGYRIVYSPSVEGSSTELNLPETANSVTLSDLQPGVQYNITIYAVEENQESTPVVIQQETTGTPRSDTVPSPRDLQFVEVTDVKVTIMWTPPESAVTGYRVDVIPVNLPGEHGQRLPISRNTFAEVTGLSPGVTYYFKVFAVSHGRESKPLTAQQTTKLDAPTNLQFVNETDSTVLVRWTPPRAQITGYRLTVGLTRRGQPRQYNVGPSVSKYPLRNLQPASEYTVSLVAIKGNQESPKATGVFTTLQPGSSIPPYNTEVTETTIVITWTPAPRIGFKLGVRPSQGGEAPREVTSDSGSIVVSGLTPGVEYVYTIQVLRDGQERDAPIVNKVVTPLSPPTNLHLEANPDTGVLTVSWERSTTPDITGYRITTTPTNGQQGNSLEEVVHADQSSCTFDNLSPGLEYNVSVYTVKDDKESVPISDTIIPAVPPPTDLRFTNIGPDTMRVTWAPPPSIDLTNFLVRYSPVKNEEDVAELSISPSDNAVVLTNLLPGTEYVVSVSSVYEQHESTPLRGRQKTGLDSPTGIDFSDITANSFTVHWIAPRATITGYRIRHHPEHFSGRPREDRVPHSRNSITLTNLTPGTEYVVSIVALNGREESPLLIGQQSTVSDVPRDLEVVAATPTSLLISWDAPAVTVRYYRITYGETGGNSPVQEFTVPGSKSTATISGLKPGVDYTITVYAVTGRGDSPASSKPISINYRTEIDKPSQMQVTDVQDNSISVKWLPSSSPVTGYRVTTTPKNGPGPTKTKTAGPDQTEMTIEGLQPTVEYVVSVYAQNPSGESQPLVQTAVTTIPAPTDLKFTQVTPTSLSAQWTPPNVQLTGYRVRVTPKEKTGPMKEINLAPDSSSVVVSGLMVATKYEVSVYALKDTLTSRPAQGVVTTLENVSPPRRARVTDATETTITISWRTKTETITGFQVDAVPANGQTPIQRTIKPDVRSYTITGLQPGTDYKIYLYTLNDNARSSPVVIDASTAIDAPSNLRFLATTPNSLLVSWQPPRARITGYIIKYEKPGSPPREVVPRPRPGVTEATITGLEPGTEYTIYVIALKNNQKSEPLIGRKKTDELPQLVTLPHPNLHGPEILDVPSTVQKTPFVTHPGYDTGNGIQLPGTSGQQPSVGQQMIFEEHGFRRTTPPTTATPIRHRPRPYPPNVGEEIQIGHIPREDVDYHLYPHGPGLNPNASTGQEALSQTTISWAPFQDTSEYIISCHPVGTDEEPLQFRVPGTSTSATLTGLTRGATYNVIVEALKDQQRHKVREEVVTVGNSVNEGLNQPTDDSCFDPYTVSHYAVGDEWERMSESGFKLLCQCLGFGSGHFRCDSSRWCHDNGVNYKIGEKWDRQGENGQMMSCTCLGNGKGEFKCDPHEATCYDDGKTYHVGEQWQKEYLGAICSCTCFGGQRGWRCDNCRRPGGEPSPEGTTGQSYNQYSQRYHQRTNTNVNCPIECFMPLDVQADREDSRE

Substance	Kd [1] [nM]	Kd [2] [nM]	Kd [3] [nM]
PDGF-BB/PlGF123-141	25	1.4	
PDGF-BB/PlGF123-141 (other; other documents disagree on this pair)			17.7
IL-1Ra/PlGF123-141	20.3	0.7	
IL-1Ra/PlGF123-141 (other; other documents disagree on this pair)			21.9
